# Experimental data reported in FireProtDB (doi:10.1021/bi00014a029).
# Conditions: Meleagris gallopavo, Thermal, Potassium phosphate/Potassium acetate 10 mM/10 mM/
# [1] = pH 1.5, CD, reversible: yes (82%)
# [2] = pH 1.99, DSC, reversible: yes (91%)
# [3] = pH 2.1, CD, reversible: yes (89%)
# [4] = pH 2.5, CD, reversible: yes (85%)
# [5] = pH 2.52, DSC, reversible: yes (90%)
# [6] = pH 2.56, DSC, reversible: yes (78%)
# [7] = pH 3.46, DSC, reversible: yes (90%)
# [8] = pH 3.48, DSC, reversible: yes (81%)
# [9] = pH 3.94, DSC, reversible: yes (87%)
# [10] = pH 4.51, DSC, reversible: yes (84%)
# [11] = pH 4.96, DSC, reversible: yes (100%)
# Ovomucoid wild type, P68390, sequence (P68390 whole entry): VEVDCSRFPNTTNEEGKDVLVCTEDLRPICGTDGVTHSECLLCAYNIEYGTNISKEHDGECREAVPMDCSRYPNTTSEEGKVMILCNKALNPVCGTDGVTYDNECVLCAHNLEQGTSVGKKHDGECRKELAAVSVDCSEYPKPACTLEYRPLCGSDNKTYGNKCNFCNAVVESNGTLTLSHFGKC
substance,measurement,setting,value
"Ovomucoid wild type, P68390",Tm,[1],60.5 °C
same,unfolding enthalpy (van 't Hoff),[1],40.9 kcal/mol
same,Tm,[2],63.1 °C
same,unfolding enthalpy (calorimetric),[2],44.2 kcal/mol
same,unfolding enthalpy (van 't Hoff),[2],44.6 kcal/mol
same,Tm,[3],62.7 °C
same,unfolding enthalpy (van 't Hoff),[3],42.8 kcal/mol
same,Tm,[4],66.2 °C
same,unfolding enthalpy (van 't Hoff),[4],43.7 kcal/mol
same,Tm,[5],68.5 °C
same,unfolding enthalpy (calorimetric),[5],47.7 kcal/mol
same,unfolding enthalpy (van 't Hoff),[5],49.2 kcal/mol
same,Tm,[6],65.7 °C
same,unfolding enthalpy (calorimetric),[6],45.4 kcal/mol
same,unfolding enthalpy (van 't Hoff),[6],45.4 kcal/mol
same,Tm,[7],78.7 °C
same,unfolding enthalpy (calorimetric),[7],48.1 kcal/mol
same,unfolding enthalpy (van 't Hoff),[7],49.6 kcal/mol
same,Tm,[8],78.7 °C
same,unfolding enthalpy (calorimetric),[8],50 kcal/mol
same,unfolding enthalpy (van 't Hoff),[8],51 kcal/mol
same,Tm,"pH 3.51, DSC",80.8 °C
same,unfolding enthalpy (calorimetric),"pH 3.51, DSC",55 kcal/mol
same,unfolding enthalpy (van 't Hoff),"pH 3.51, DSC",57.9 kcal/mol
same,Tm,[9],85.7 °C
same,unfolding enthalpy (calorimetric),[9],55.3 kcal/mol
same,unfolding enthalpy (van 't Hoff),[9],52.7 kcal/mol
same,Tm,[10],85.2 °C
same,unfolding enthalpy (calorimetric),[10],57.4 kcal/mol
same,unfolding enthalpy (van 't Hoff),[10],56.3 kcal/mol
same,Tm,[11],87.8 °C
same,unfolding enthalpy (calorimetric),[11],62.4 kcal/mol
